B1: HC2:LC1 (antibody, human IgG4 S228P, kappa, V domains shown)
VH: EVQLVESGGGLVQPGGSLRLSCAASGFTFNANAMNWVRQAPGKGLEWVGRIRTKSNNYATYYAGSVKDRFTISRDDSKNSLYLQMNSLKTEDTAVYYCVRDYYGSSAWITYWGQGTLVTVSS
VL: DVVMTQSPSFLSASVGDRVTITCKASQHVGTAVAWYQQRPGKAPKLLIYWASTRHTGVPSRFSGSGSGTEFTLTISSLQPEDFATYFCQQYSSYPFTFGGGTKLEIKR
notes: Human IgG4 (S228P) heavy chain HC2 (VH2) and human kappa light chain LC1 (VL1); also called humanized monoclonal antibody specific for HPTP-β
B2: HC2:LC1-AFL (bispecific antibody, human IgG4 S228P, kappa)
heavy: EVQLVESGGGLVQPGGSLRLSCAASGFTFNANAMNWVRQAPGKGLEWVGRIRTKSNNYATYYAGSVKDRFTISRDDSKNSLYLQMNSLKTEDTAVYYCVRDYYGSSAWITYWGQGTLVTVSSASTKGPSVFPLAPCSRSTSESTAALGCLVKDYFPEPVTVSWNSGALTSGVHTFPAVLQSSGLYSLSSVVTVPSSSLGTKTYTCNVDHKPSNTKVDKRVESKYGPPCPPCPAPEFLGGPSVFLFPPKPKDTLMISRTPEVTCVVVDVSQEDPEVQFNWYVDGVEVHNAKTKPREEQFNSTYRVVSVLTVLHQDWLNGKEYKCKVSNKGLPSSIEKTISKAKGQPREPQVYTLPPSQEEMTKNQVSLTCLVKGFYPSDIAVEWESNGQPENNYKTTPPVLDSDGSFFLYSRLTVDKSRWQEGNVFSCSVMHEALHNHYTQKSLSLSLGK
light: DVVMTQSPSFLSASVGDRVTITCKASQHVGTAVAWYQQRPGKAPKLLIYWASTRHTGVPSRFSGSGSGTEFTLTISSLQPEDFATYFCQQYSSYPFTFGGGTKLEIKRTVAAPSVFIFPPSDEQLKSGTASVVCLLNNFYPREAKVQWKVDNALQSGNSQESVTEQDSKDSTYSLSSTLTLSKADYEKHKVYACEVTHQGLSSPVTKSFNRGECGGGGSSDTGRPFVEMYSEIPEIIHMTEGRELVIPCRVTSPNITVTLKKFPLDTLIPDGKRIIWDSRKGFIISNATYKEIGLLTCEATVNGHLYKTNYLTHRQTNTIIDVVLSPSHGIELSVGEKLVLNCTARTELNVGIDFNWEYPSSKHQHKKLVNRDLKTQSGSEMKKFLSTLTIDGVTRSDQGLYTCAASSGLMTKKNSTFVRVHEK
B3: HC2-AFL:LC1-AFL (bispecific antibody, human IgG4 S228P, kappa)
heavy: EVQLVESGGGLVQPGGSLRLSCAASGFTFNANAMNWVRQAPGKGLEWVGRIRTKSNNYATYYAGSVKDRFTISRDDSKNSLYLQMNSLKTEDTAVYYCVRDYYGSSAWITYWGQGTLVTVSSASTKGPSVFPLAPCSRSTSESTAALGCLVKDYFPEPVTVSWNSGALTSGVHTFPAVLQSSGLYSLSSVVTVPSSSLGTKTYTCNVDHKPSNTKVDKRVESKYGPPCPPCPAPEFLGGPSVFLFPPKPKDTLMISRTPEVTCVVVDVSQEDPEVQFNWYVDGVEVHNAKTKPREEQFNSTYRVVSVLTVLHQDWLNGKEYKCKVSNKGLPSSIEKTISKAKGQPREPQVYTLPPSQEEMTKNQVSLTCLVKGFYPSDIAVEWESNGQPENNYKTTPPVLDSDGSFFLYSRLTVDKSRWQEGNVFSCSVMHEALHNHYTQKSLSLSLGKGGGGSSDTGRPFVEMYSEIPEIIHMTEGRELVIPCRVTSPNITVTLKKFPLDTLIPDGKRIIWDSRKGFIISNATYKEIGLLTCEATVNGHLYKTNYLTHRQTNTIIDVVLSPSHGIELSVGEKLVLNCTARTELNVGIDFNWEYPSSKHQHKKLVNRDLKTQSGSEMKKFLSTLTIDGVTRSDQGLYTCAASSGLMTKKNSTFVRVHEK
light: B2 light
B4: HC2-AFL:LC1 (bispecific antibody, human IgG4 S228P, kappa)
heavy: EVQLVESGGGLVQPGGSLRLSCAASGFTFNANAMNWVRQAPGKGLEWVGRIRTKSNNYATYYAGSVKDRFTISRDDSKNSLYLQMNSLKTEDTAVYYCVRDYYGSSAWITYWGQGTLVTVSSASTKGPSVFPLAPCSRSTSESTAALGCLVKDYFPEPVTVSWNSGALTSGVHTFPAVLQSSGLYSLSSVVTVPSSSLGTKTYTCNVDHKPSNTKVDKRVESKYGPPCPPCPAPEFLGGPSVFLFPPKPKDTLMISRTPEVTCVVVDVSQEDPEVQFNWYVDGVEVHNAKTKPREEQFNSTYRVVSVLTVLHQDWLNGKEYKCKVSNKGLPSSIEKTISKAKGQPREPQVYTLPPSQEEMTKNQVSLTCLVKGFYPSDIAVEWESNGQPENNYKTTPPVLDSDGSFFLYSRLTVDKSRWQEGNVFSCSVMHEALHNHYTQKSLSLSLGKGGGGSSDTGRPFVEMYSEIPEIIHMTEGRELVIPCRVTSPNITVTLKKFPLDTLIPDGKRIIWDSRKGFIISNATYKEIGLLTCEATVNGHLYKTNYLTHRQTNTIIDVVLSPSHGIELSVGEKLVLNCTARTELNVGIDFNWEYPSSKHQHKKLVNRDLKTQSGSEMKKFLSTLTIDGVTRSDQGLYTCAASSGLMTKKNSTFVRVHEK
light: DVVMTQSPSFLSASVGDRVTITCKASQHVGTAVAWYQQRPGKAPKLLIYWASTRHTGVPSRFSGSGSGTEFTLTISSLQPEDFATYFCQQYSSYPFTFGGGTKLEIKRTVAAPSVFIFPPSDEQLKSGTASVVCLLNNFYPREAKVQWKVDNALQSGNSQESVTEQDSKDSTYSLSSTLTLSKADYEKHKVYACEVTHQGLSSPVTKSFNRGEC
B5: HC2-BRO:LC1 (bispecific antibody, human IgG4 S228P, kappa)
heavy: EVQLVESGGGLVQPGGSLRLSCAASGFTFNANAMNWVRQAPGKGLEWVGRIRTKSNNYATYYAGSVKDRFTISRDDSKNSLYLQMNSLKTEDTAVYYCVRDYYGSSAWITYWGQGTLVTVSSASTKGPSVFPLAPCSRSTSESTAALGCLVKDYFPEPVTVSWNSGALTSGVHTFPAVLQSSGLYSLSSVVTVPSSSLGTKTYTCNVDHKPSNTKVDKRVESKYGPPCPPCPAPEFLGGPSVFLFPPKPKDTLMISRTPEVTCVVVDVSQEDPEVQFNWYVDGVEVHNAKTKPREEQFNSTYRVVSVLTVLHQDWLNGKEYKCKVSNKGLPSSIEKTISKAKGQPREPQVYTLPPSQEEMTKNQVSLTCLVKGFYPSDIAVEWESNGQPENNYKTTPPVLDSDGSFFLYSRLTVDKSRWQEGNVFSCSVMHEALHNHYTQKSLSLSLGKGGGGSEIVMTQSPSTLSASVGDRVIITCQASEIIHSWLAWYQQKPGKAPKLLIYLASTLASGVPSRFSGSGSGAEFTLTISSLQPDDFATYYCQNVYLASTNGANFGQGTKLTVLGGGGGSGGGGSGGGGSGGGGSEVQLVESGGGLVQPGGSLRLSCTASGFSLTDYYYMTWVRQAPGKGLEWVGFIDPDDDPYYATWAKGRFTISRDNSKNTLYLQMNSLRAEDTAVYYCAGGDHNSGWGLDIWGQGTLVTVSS
light: B4 light
B6: HC2-ABI:LC1 (bispecific antibody, human IgG4 S228P, kappa)
heavy: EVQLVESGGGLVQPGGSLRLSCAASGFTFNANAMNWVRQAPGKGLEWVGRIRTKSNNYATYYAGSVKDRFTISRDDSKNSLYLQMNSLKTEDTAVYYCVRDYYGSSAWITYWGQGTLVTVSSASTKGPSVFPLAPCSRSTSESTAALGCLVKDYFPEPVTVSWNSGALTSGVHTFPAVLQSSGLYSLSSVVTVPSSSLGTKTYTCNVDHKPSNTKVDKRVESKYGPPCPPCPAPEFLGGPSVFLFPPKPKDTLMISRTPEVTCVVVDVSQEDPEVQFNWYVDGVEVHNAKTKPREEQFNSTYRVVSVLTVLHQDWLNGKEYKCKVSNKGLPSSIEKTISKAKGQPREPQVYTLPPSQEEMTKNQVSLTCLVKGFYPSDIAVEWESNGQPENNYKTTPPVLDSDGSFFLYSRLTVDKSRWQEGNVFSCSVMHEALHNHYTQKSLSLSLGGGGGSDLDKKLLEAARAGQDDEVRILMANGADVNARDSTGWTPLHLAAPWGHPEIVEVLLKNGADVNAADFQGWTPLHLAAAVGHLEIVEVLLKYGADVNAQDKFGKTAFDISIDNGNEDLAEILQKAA
light: B4 light
B7: HC2:LC1-ABI (bispecific antibody, human IgG4 S228P, kappa)
heavy: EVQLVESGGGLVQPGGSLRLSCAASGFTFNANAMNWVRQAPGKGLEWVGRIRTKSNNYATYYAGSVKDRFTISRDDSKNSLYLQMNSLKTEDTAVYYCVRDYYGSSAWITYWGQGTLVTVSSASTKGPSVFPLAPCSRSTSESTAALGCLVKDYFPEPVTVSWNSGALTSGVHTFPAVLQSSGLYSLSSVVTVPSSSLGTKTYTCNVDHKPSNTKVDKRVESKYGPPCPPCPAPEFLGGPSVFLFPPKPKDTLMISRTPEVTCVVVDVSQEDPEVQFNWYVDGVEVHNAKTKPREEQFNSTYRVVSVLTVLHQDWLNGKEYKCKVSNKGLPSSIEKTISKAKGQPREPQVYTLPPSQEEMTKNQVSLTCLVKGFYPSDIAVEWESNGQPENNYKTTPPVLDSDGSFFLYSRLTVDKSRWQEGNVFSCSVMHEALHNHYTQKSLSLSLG
light: DVVMTQSPSFLSASVGDRVTITCKASQHVGTAVAWYQQRPGKAPKLLIYWASTRHTGVPSRFSGSGSGTEFTLTISSLQPEDFATYFCQQYSSYPFTFGGGTKLEIKRTVAAPSVFIFPPSDEQLKSGTASVVCLLNNFYPREAKVQWKVDNALQSGNSQESVTEQDSKDSTYSLSSTLTLSKADYEKHKVYACEVTHQGLSSPVTKSFNRGECGGGGSDLDKKLLEAARAGQDDEVRILMANGADVNARDSTGWTPLHLAAPWGHPEIVEVLLKNGADVNAADFQGWTPLHLAAAVGHLEIVEVLLKYGADVNAQDKFGKTAFDISIDNGNEDLAEILQKAA
notes: The expressed entry minus its signal peptide is used here
B8: HC2-ABI:LC1-ABI (bispecific antibody, human IgG4 S228P, kappa)
heavy: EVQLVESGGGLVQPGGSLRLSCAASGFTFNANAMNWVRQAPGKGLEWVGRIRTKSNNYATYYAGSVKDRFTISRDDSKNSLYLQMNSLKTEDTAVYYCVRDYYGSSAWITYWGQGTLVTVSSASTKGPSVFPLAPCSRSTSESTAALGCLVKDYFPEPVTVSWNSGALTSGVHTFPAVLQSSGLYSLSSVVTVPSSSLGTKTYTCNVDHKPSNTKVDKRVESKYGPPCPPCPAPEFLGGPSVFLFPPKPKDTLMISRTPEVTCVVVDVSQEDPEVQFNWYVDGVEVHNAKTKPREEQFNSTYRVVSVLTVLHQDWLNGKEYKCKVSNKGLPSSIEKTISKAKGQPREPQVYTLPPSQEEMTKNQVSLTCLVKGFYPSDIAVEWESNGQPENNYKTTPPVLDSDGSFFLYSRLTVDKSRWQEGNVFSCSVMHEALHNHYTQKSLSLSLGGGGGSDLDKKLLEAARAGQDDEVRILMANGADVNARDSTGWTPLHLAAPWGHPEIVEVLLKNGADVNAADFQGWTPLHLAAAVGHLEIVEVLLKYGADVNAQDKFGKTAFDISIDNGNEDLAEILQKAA
light: B7 light
B9: HC2:LC1-BRO (bispecific antibody, human IgG4 S228P, kappa)
heavy: not shown
light: DVVMTQSPSFLSASVGDRVTITCKASQHVGTAVAWYQQRPGKAPKLLIYWASTRHTGVPSRFSGSGSGTEFTLTISSLQPEDFATYFCQQYSSYPFTFGGGTKLEIKRTVAAPSVFIFPPSDEQLKSGTASVVCLLNNFYPREAKVQWKVDNALQSGNSQESVTEQDSKDSTYSLSSTLTLSKADYEKHKVYACEVTHQGLSSPVTKSFNRGECGGGGSEIVMTQSPSTLSASVGDRVIITCQASEIIHSWLAWYQQKPGKAPKLLIYLASTLASGVPSRFSGSGSGAEFTLTISSLQPDDFATYYCQNVYLASTNGANFGQGTKLTVLGGGGGSGGGGSGGGGSGGGGSEVQLVESGGGLVQPGGSLRLSCTASGFSLTDYYYMTWVRQAPGKGLEWVGFIDPDDDPYYATWAKGRFTISRDNSKNTLYLQMNSLRAEDTAVYYCAGGDHNSGWGLDIWGQGTLVTVSS
B10: HC2-BRO:LC1-BRO (bispecific antibody, human IgG4 S228P, kappa)
heavy: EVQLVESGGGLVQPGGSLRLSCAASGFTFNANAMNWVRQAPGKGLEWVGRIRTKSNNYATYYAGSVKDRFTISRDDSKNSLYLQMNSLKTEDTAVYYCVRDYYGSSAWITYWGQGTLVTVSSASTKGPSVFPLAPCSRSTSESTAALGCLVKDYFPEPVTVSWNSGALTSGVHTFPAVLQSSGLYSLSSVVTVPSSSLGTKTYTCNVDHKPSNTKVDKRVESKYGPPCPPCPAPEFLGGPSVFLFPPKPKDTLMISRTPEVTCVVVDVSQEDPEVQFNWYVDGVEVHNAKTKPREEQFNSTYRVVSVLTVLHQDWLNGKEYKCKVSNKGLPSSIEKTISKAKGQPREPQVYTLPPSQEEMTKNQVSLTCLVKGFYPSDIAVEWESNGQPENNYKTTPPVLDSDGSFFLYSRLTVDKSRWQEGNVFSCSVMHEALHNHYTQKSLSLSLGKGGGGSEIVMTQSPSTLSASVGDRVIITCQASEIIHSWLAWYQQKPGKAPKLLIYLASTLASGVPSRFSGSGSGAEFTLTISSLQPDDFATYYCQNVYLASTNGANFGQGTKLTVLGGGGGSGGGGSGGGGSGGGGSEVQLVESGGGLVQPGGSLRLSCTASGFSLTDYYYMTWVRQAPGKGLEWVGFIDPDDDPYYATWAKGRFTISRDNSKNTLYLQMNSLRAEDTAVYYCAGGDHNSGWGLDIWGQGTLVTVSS
light: B9 light
B11: HC2-RAN:LC1 (bispecific antibody, human IgG4 S228P, kappa)
heavy: not shown
light: B4 light
notes: also called HC2-RBZ:LC1; tetravalent bispecific antibody with ranibizumab-derived scFv on the heavy chain C-termini

The target of the first test is T1, VEGF (UniProt P15692-4 27-191, limits assumed).
T1 construct: also called vascular endothelial growth factor
T1 sequence (P15692 other isoform, or with tags, fused parts or gaps limits assumed): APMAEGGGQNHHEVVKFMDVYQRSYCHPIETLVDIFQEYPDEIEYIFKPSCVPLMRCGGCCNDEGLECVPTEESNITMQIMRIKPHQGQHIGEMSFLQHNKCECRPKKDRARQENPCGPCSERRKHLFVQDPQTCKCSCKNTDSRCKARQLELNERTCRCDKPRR
The experiment in a line: Biacore SPR, scouting; antibody immobilised on CM5 chip, VEGF as analyte. As for the experimental part:
(§1) For analysis of binding of the antibodies to VEGF, the antibodies were immobilized on the surface of the chip by direct immobilization using EDC/NHS coupling chemistry on flow cell 2 of the CM5 chip. Unoccupied sites were blocked with 1M ethanolamine. The analyte (VEGF) was flowed over the chip at a single analyte concentration at a time. The binding of analyte to the ligand was monitored in real time to obtain on (kₐ) and off (kd) rates. The equilibrium constant (KD) was calculated from the observed kₐ and kd.
(§2) Chi square analysis was carried out between the actual sensorgram and the sensorgram generated from the BIAnalysis software to confirm the accuracy of the analysis; values of 1-2 were considered accurate and below 1 highly accurate.
Turning to B1, the binding result is reported as “no binding (tested: 10 nM of analyte)”.

Another test has as its target T1, VEGF. In words: Biacore SPR, scouting at 10 nM analyte; antibody immobilised on CM5 chip, VEGF as analyte. As for the experimental part:
(§3) The assay buffer contained 10 mM HEPES buffer (pH 7.4), 150 mM NaCl, 3 mM EDTA, and 0.05% P20 (polyoxyethylenesorbitan). […] The conjugation buffer contained 10 mM sodium acetate buffer (pH 5). A flow rate of 5 μL/minute was used for capturing ligand. A flow rate of 30 μL/minute was used for kinetic analysis.
as §1, §2
Consider B2, for which binding was characterised by a dissociation constant (Kd) of 825 pM.

B3 showed a Kd of 557 pM.

On to B4, for which the affinity, expressed as Kd, was 350 pM.

Molecule B5 displayed a Kd of 0.112 pM.

Turning to B6, the Kd turned out to be 0.11 pM.

Consider B7, for which the Kd came out at 519 pM.

Turning to B8, the Kd was determined as 680 pM.

With B9, the Kd turned out to be 0.0351 pM.

For B10, binding was characterised by a dissociation constant (Kd) of 1.79 pM.

The target of another test is T1, VEGF. The experiment in a line: Biacore SPR, full kinetics at 0-10 nM analyte; antibody immobilised on CM5 chip, VEGF as analyte. How it is done: as §3, §1
(§4) Chi square analysis was carried out between the actual sensorgram and the sensorgram generated from the BNAnalysis software to confirm the accuracy of the analysis; values of 1-2 were considered accurate and below 1 highly accurate.
In turn, B4 displayed an equilibrium dissociation constant (Kd) of 46.3 pM.

Regarding B5, the Kd worked out at 0.218 pM.

Regarding B6, the Kd was determined as 0.04 pM.

The target in the next test is T2, poly-histidine tagged HPTP-β extracellular domain (ECD) 1/2 (human, UniProt P23467 23-730, limits assumed).
T2 construct: domain: extracellular domain (ECD) 1/2; Captured on the Biacore chip through goat anti-His antibody; also called His-tagged ligand HPTP-β 1/2 ECD; not shown: poly-histidine tag
T2 sequence (looked up): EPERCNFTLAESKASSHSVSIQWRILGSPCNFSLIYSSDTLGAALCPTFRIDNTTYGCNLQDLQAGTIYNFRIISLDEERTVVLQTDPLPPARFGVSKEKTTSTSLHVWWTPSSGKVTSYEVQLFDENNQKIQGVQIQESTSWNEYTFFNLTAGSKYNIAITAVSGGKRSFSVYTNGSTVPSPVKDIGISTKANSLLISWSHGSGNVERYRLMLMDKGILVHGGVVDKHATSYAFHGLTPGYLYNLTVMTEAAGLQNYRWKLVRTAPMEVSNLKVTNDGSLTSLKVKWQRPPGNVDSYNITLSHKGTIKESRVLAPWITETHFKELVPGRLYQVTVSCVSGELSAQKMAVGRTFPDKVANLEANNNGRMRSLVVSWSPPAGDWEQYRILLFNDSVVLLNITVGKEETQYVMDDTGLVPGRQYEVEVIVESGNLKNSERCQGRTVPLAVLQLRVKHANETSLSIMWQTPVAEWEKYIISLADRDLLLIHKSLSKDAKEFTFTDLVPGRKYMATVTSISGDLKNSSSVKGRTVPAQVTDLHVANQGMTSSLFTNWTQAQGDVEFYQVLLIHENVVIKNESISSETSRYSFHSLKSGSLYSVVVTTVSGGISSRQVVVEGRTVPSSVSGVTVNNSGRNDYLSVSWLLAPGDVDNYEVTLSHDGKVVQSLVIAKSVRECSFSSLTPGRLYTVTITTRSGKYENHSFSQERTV
In words: Biacore SPR, scouting at 10 nM analyte; His-tagged HPTP-β 1/2 ECD captured by anti-His, antibody as analyte. As for the experimental part: as §3
(§5) For analysis of binding of antibodies to HPTP-β, poly-histidine tagged HPTP-β extracellular domain (ECD) 1/2 was immobilized on a chip surface via anti-His antibodies. Goat anti-His antibody was first immobilized on the surface of the chip by direct immobilization using EDC/NHS (N-ethyl-N′-(3-dimethyl aminopropyl carbodiimide)/N-hydroxy succinamide) coupling chemistry on flow cell 2 of the CM5 (Carboxymethylated dextran coated) chip. Unoccupied sites were blocked with 1M ethanolamine. The His-tagged ligand HPTP-β 1/2 ECD was captured at a response unit (RU) of 50. The analyte (antibody) was flowed over the chip at a single analyte concentration at a time. The binding of analyte to the ligand was monitored in real time to obtain on (kₐ) and off (kd) rates. The equilibrium constant (KD) was calculated from the observed kₐ and kd.
as §2
B2 registered a dissociation constant (Kd) of 0.467 nM.

As to B3, the Kd is 0.0694 nM.

Molecule B1 displayed a Kd of 0.0732 nM.

The molecule B4 yielded an equilibrium dissociation constant (Kd) of 0.32 nM.

On to B5, for which the Kd came out at 0.325 nM.

With B6, the Kd came out at 0.122 nM. Against the preceding molecule, the Kd is about 2.7-fold lower.

With B7, binding was characterised by a dissociation constant (Kd) of 0.061 nM.

In turn, B8 came in with a Kd of 0.205 nM.

B9 displayed a Kd of 0.309 nM. This Kd lies about 1.5-fold higher than the previous one.

On to B10, for which the Kd was 0.0035 nM.

The target of another test is T2, poly-histidine tagged HPTP-β …. In words: Biacore SPR, full kinetics at 0-10 nM analyte; His-tagged HPTP-β 1/2 ECD captured by anti-His, antibody as analyte. As for the experimental part: as §3, §5, §4
The molecule B1 showed a Kd of 0.121 nM.

B4: the Kd was 0.219 nM.

B5 gave a Kd of 0.154 nM.

The molecule B6 registered a Kd of 0.00103 nM.

The target is the same in the next test. In words: Biacore SPR, scouting at 10 nM analyte; His-tagged HPTP-β 1/2 ECD captured by anti-His, antibody as analyte; scouting experiment at a single ligand concentration (Table 46), not full kinetics.
Text: as §5, §2
In turn, B11 returned a Kd of 0.586 pM.

The values above are taken from US20240174740A1 (EYEPOINT PHARMACEUTICALS, published 2024).
